The record followed here is patent US20100136061A1 (LA JOLLA INSTITUTE FOR ALLERGY AND IMMUNOLOGY, published 2010).

The labels stand for the following.
B1: DcR3-Fc (human Decoy Receptor 3 Fc fusion) (Fc fusion, UniProt O95407 30-300, looked up)
chain: VAETPTYPWRDAETGERLVCAQCPPGTFVQRPCRRDSPTTCGPCPPRHYTQFWNYLERCRYCNVLCGEREEEARACHATHNRACRCRTGFFAHAGFCLEHASCPPGAGVIAPGTPSQNTQCQPCPPGTFSASSSSSEQCQPHRNCTALGLALNVPGSSSHDTLCTSCTGFPLSTRVPGAEECERAVIDFVAFQDISIKRLQRLLQALEAPEGWGPTPRAGRAALQLKLRRRLTELLGAQDGALLVRLLQALRVARMPGLERSVRERFLPVH
notes: also called human DcR3; not shown: Fc part

Experiment [1] deals with T1, Heterotrimeric human LIGHT 32L-214E/32S-214K (combination of LIGHT-S32L and LIGHT-E214K subunits) expressed … (human, UniProt O43557 1-240; O43557 1-240).
T1 construct: Both polymorphic forms co-expressed in EL4 cells; also called combination of LIGHT-E214K and LIGHT-S32L
T1 chain 1: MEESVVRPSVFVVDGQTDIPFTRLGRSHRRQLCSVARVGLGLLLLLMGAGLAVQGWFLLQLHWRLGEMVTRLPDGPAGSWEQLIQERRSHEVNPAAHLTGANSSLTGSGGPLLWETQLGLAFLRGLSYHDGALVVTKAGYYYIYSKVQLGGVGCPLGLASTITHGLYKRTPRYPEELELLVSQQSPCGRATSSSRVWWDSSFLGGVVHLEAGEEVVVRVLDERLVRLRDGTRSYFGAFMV
T1 chain 2: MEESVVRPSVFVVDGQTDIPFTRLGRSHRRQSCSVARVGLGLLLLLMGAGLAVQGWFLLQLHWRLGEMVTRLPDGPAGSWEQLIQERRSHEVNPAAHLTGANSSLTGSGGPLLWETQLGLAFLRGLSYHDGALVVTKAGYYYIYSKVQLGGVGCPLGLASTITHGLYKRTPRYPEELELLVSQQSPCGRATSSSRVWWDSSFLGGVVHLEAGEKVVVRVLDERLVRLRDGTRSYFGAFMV
The experiment can be described thus: competition flow cytometry, graded DcR3-Fc against constant LTβR-Fc on LIGHT expressing EL4 cells. The protocol: (§1) FIGS. 11A-11B. Competition binding assay for LTβR-Fc to LIGHT expressing EL4 cells in the presence of DcR3. […] Specific LTβR-Fc binding to the LIGHT expressing EL4 cells was detected with an anti-LTβR monoclonal antibody (BD-A8). (B) IC50 values were calculated by nonlinear regression analysis using Prism GraphPad (v4; San Diego, USA).

Experiment [2] has as its target B1. Described as above. The protocol: as §1

Take B1: in experiment [1], the “IC50 ratio against the predominant form of LIGHT (SEQ ID NO:1)” value is roughly 2.5 times.

B2: Full Length Human LIGHT, predominant form (32S-214E), expressed on EL4 cells (ligand)
chain: MEESVVRPSVFVVDGQTDIPFTRLGRSHRRQSCSVARVGLGLLLLLMGAGLAVQGWFLLQLHWRLGEMVTRLPDGPAGSWEQLIQERRSHEVNPAAHLTGANSSLTGSGGPLLWETQLGLAFLRGLSYHDGALVVTKAGYYYIYSKVQLGGVGCPLGLASTITHGLYKRTPRYPEELELLVSQQSPCGRATSSSRVWWDSSFLGGVVHLEAGEEVVVRVLDERLVRLRDGTRSYFGAFMV
notes: Stably expressed on mouse EL4 thymoma cells by retroviral transduction; also called p30 polypeptide; TNFSF-14
Turning to B2, the binding result in experiment [2] is given as “binds”.
